Patent US20220356266A1

Target: soluble full length KLK2 protein (human kallikrein-2 6-His protein) (human) (UniProt P20151)
Assay: SPR; antibody captured on a chip coated with anti-Fc antibody, soluble hK2 injected, 1:1 Langmuir fit

Kd: 0.46 nM
B1: KL2B30 Fab (KLCB80) (Fab, V domains shown)
VH: QVQLQESGPGLVKPSETLSLTCTVSGGSISSYYWSWIRQPPGKGLEWIGYIYYSGSTNYNPSLKSRVTISVDTSKNQFSLKLSSVTAADTAVYYCAGTTIFGVVTPNFYYGMDVWGQGTTVTVSS
VL: DIQMTQSPSFLSASVGDRVTITCRASQGISSYLAWYQQKPGKAPKFLIYAASTLQSGVPSRFSGSGSGTEFTLTISSLQPEDFATYYCQQLNSYPLTFGGGTKVEIKR
